Laboratory results from the supplement of paper PMC9112550, “Optimization of the antimicrobial peptide Bac7 by deep mutational scanning” (BMC Biology, 2022).

Tested on: Escherichia coli TOP10
Experiment: shrunken log2 fold change of peptide-encoding DNA abundance (4.5 h post-induction vs induction); higher = less antimicrobial activity (less host growth inhibition)
Settings: time post-induction: 4.5 h; library: site-saturation at positions 5, 18, 19, 20
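Note: peptides expressed intracellularly from a pBAD plasmid library in pooled LB shake-flask culture, induced with 0.3% L-arabinose, DNA abundance read by NGS, three biological replicates, DESeq2 with apeglm shrinkage.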

Point of comparison: RRIRARPPRLPRPRPRPDRSPRP, “shrunken log2 fold change” value -0.0282. Against it:
- RRIRARPPRLPRPRPRPAAGPRP — higher, 0.78
- RRIRARPPRLPRPRPRPACEPRP — higher, 0.879
- RRIRARPPRLPRPRPRPADHPRP — within 0.2 log units, 0.0196
- RRIRARPPRLPRPRPRPAFRPRP — higher, 0.355
- RRIRARPPRLPRPRPRPAGTPRP — higher, 0.308
- RRIRARPPRLPRPRPRPAHSPRP — higher, 0.469
- RRIRARPPRLPRPRPRPAHTPRP — higher, 0.544
- RRIRARPPRLPRPRPRPAIMPRP — within 0.2 log units, 0.161
- RRIRARPPRLPRPRPRPAKLPRP — higher, 0.196
- RRIRARPPRLPRPRPRPALAPRP — higher, 0.554
- RRIRARPPRLPRPRPRPALKPRP — higher, 0.825
- RRIRARPPRLPRPRPRPALVPRP — higher, 0.597
- RRIRARPPRLPRPRPRPAMKPRP — within 0.2 log units, 0.0417
- RRIRARPPRLPRPRPRPAMRPRP — higher, 0.825
- RRIRARPPRLPRPRPRPAMTPRP — higher, 0.356
- RRIRARPPRLPRPRPRPARMPRP — higher, 0.724
- RRIRARPPRLPRPRPRPARVPRP — higher, 0.813
- RRIRARPPRLPRPRPRPASGPRP — higher, 1.35
- RRIRARPPRLPRPRPRPASPPRP — higher, 0.499
- RRIRARPPRLPRPRPRPATSPRP — higher, 0.461
- RRIRARPPRLPRPRPRPAVVPRP — within 0.2 log units, 0.16
- RRIRARPPRLPRPRPRPAWKPRP — higher, 0.398
- RRIRARPPRLPRPRPRPAYIPRP — within 0.2 log units, -0.148
- RRIRARPPRLPRPRPRPAYLPRP — higher, 0.365
- RRIRARPPRLPRPRPRPAYYPRP — within 0.2 log units, -0.166
- RRIRARPPRLPRPRPRPCCNPRP — higher, 0.278
- RRIRARPPRLPRPRPRPCFCPRP — higher, 0.25
- RRIRARPPRLPRPRPRPCFFPRP — within 0.2 log units, 0.145
- RRIRARPPRLPRPRPRPCFYPRP — within 0.2 log units, -0.218
- RRIRARPPRLPRPRPRPCIHPRP — lower, -0.438
- RRIRARPPRLPRPRPRPCIIPRP — within 0.2 log units, -0.076
- RRIRARPPRLPRPRPRPCKIPRP — within 0.2 log units, -0.165
- RRIRARPPRLPRPRPRPCLPPRP — within 0.2 log units, 0.0185
- RRIRARPPRLPRPRPRPCQHPRP — lower, -0.274
- RRIRARPPRLPRPRPRPCRHPRP — lower, -0.355
- RRIRARPPRLPRPRPRPCRNPRP — lower, -0.38
- RRIRARPPRLPRPRPRPCSHPRP — within 0.2 log units, 0.0574
- RRIRARPPRLPRPRPRPCSTPRP — within 0.2 log units, -0.0691
- RRIRARPPRLPRPRPRPCSYPRP — within 0.2 log units, -0.0595
- RRIRARPPRLPRPRPRPCTMPRP — within 0.2 log units, -0.207
- RRIRARPPRLPRPRPRPCVCPRP — higher, 0.301
- RRIRARPPRLPRPRPRPCVQPRP — higher, 0.217
- RRIRARPPRLPRPRPRPCVTPRP — higher, 0.176
- RRIRARPPRLPRPRPRPCWKPRP — within 0.2 log units, -0.16
- RRIRARPPRLPRPRPRPCWMPRP — within 0.2 log units, -0.102
- RRIRARPPRLPRPRPRPCWPPRP — within 0.2 log units, 0.162
- RRIRARPPRLPRPRPRPCYQPRP — lower, -0.232
- RRIRARPPRLPRPRPRPCYSPRP — lower, -0.525
- RRIRARPPRLPRPRPRPCYYPRP — lower, -0.508
- RRIRARPPRLPRPRPRPDAKPRP — higher, 0.338
- RRIRARPPRLPRPRPRPDASPRP — higher, 1.94
- RRIRARPPRLPRPRPRPDDRPRP — within 0.2 log units, -0.149
- RRIRARPPRLPRPRPRPDHFPRP — within 0.2 log units, -0.148
- RRIRARPPRLPRPRPRPDHHPRP — within 0.2 log units, -0.201
- RRIRARPPRLPRPRPRPDKAPRP — within 0.2 log units, 0.121
- RRIRARPPRLPRPRPRPDLAPRP — higher, 1.07
- RRIRARPPRLPRPRPRPDLKPRP — higher, 0.523
- RRIRARPPRLPRPRPRPDLYPRP — within 0.2 log units, 0.00132
- RRIRARPPRLPRPRPRPDMVPRP — higher, 0.308
- RRIRARPPRLPRPRPRPDNMPRP — lower, -0.45
- RRIRARPPRLPRPRPRPDPAPRP — higher, 1.3
- RRIRARPPRLPRPRPRPDPDPRP — higher, 1.3
- RRIRARPPRLPRPRPRPDPFPRP — within 0.2 log units, 0.0855
- RRIRARPPRLPRPRPRPDPQPRP — higher, 0.698
- RRIRARPPRLPRPRPRPDQAPRP — within 0.2 log units, 0.026
- RRIRARPPRLPRPRPRPDQRPRP — higher, 0.267
- RRIRARPPRLPRPRPRPDRFPRP — higher, 0.414
- RRIRARPPRLPRPRPRPDSSPRP — higher, 0.371
- RRIRARPPRLPRPRPRPDSVPRP — within 0.2 log units, 0.118
- RRIRARPPRLPRPRPRPDTSPRP — higher, 0.435
- RRIRARPPRLPRPRPRPDVGPRP — within 0.2 log units, 0.0285
- RRIRARPPRLPRPRPRPDWMPRP — higher, 0.383
- RRIRARPPRLPRPRPRPDWQPRP — higher, 0.281
- RRIRARPPRLPRPRPRPDYGPRP — lower, -0.679
- RRIRARPPRLPRPRPRPDYQPRP — within 0.2 log units, -0.0168
- RRIRARPPRLPRPRPRPEAFPRP — within 0.2 log units, 0.0217
- RRIRARPPRLPRPRPRPEAGPRP — higher, 1.5
- RRIRARPPRLPRPRPRPECFPRP — higher, 0.938
- RRIRARPPRLPRPRPRPECMPRP — higher, 1.41
- RRIRARPPRLPRPRPRPEEDPRP — higher, 1.77
- RRIRARPPRLPRPRPRPEEPPRP — higher, 1.24
- RRIRARPPRLPRPRPRPEFMPRP — within 0.2 log units, 0.115
- RRIRARPPRLPRPRPRPEGSPRP — higher, 0.805
- RRIRARPPRLPRPRPRPEHTPRP — within 0.2 log units, 0.0124
- RRIRARPPRLPRPRPRPEKNPRP — higher, 0.538
- RRIRARPPRLPRPRPRPELFPRP — higher, 0.7
- RRIRARPPRLPRPRPRPELWPRP — higher, 1.3
- RRIRARPPRLPRPRPRPEMIPRP — within 0.2 log units, 0.0273
- RRIRARPPRLPRPRPRPEMLPRP — higher, 0.234
- RRIRARPPRLPRPRPRPENMPRP — higher, 0.242
- RRIRARPPRLPRPRPRPENQPRP — within 0.2 log units, 0.153
- RRIRARPPRLPRPRPRPENYPRP — within 0.2 log units, 0.0453
- RRIRARPPRLPRPRPRPEPEPRP — higher, 0.967
- RRIRARPPRLPRPRPRPESCPRP — higher, 0.869
- RRIRARPPRLPRPRPRPESHPRP — higher, 1.04
- RRIRARPPRLPRPRPRPETQPRP — higher, 1.57
- RRIRARPPRLPRPRPRPEYFPRP — higher, 0.188
- RRIRARPPRLPRPRPRPEYYPRP — within 0.2 log units, -0.059
- RRIRARPPRLPRPRPRPFAAPRP — higher, 0.644
- RRIRARPPRLPRPRPRPFCQPRP — within 0.2 log units, -0.0229
- RRIRARPPRLPRPRPRPFDIPRP — within 0.2 log units, -0.127
- RRIRARPPRLPRPRPRPFEDPRP — within 0.2 log units, 0.0795
- RRIRARPPRLPRPRPRPFEPPRP — higher, 0.276
- RRIRARPPRLPRPRPRPFFYPRP — within 0.2 log units, 0.105
- RRIRARPPRLPRPRPRPFGGPRP — within 0.2 log units, 0.0726
- RRIRARPPRLPRPRPRPFHRPRP — higher, 0.206
- RRIRARPPRLPRPRPRPFIVPRP — lower, -0.286
- RRIRARPPRLPRPRPRPFKNPRP — within 0.2 log units, -0.193
